The values that follow come from paper PMC4706170.

The target of assay [1] is BG505 SOSIP.664 trimer (HIV-1 strain BG505). Description: AUC.
The target in assay [2] is BG505 SOSIP.664 201C-433C (HIV-1 strain BG505). Description: AUC.

For the substance “2-domain soluble CD4 (CD4 D1D2) (domain or fragment)”, in assay [1], the stoichiometry N (CD4 per trimer) was determined as 3.

For the substance “2-domain soluble CD4 (domain or fragment)”, the stoichiometry N (CD4 per trimer) in assay [2] came to 1.

For the substance 4-domain CD4 (domain or fragment), the values for the stoichiometry N (CD4 per trimer) in assay [2] and in assay [1] were 1 and 2, respectively.

“4-domain soluble CD4 (CD4 D1D4) (domain or fragment)” registered a stoichiometry N (CD4 per trimer) in assay [1] of 3.
